In patent US20180193430, “COMPOSITIONS AND METHODS TO INHIBIT VIRAL REPLICATION” (published 2018):
Residue numbers refer to the chain shown, from its start.

T1: RIG-I wild-type (Homo sapiens, UniProt O95786 SEQ:1-925)
T1 chain: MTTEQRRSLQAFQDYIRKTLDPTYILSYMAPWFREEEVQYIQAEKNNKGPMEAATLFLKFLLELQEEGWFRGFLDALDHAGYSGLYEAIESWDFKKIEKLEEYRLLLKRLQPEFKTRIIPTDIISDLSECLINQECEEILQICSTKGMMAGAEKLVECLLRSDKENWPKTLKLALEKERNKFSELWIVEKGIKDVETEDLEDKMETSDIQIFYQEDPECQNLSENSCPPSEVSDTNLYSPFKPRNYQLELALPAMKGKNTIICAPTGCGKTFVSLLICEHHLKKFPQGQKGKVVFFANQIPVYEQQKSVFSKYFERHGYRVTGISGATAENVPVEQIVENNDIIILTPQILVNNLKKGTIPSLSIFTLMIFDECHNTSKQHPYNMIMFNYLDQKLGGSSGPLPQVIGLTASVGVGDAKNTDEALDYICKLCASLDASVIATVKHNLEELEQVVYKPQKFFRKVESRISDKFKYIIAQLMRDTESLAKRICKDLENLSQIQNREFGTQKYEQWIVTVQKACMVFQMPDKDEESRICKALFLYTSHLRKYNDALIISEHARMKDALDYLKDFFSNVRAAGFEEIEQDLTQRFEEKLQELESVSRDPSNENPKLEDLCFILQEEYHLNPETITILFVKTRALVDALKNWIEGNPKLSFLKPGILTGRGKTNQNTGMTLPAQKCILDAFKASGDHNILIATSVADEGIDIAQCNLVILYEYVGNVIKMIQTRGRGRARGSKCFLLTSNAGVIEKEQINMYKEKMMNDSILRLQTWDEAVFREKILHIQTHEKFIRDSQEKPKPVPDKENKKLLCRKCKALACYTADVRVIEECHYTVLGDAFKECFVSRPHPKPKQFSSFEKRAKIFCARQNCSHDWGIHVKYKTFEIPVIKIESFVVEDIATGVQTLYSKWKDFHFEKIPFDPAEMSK

T2: RIG-I-K270A (Homo sapiens, UniProt O95786 SEQ:1-925, K270A)
T2 sequence: T1 chain with K270A

T3: RIG-I-N495D (Homo sapiens, UniProt O95786 SEQ:1-925, N495D)
T3 sequence: T1 chain with N495D

B1: control dsRNA 19mer (dsRNA)
RNA 1: GCAUGCGACCUCUGUUUGA
RNA 2: UCAAACAGAGGUCGCAUGC
B2: 5'-ppp-dsRNA 19mer (dsRNA)
RNA 1: GCAUGCGACCUCUGUUUGA
RNA 2: UCAAACAGAGGUCGCAUGC
modifications: 5'-triphosphate on top strand

Key:
RIG-I wild-type [1] = molecular target: T1, RIG-I wild-type; assay: EMSA; forms the slowly migrating complex with dsRNA lacking 5'-triphosphate; 1.5 mM MgCl2, room temperature; details: tags: Flag; purified from transfected HEK293T; label: 32P at 5' end of bottom strand; blunt 19 bp duplex lacking 5'-triphosphate
RIG-I-K270A = molecular target: T2, RIG-I-K270A; assay: EMSA; affinity similar to WT; 1.5 mM MgCl2, room temperature; details: tags: Flag; purified from transfected HEK293T; label: 32P at 5' end of bottom strand; blunt 19 bp duplex
RIG-I wild-type [2] = molecular target: T1, RIG-I wild-type; assay: EMSA; two RIG-I:RNA complexes with increasing RIG-I; 20 mM Tris-HCl pH 8.0, 1.5 mM MgCl2, 1.5 mM DTT, room temperature; details: tags: Flag; purified from transfected HEK293T; label: 32P at 5' end of bottom strand; blunt 19 bp duplex
RIG-I-N495D = molecular target: T3, RIG-I-N495D; assay: EMSA; affinity comparable to WT; 1.5 mM MgCl2, room temperature; details: tags: Flag; purified from transfected HEK293T; label: 32P at 5' end of bottom strand; blunt 19 bp duplex

Binder	binding result (RIG-I wild-type [1])	binding result (RIG-I-K270A)	binding result (RIG-I wild-type [2])	binding result (RIG-I-N495D)
B1	binds	–	–	–
B2	–	binds	binds	binds
